Laboratory results: patent publication US20130331317A1 (NEW YORK UNIVERSITY, published 2013)

Assays:
[1] = target: binary complex of FGFR1c ligand-binding domain with murine αKlotho ectodomain (murine;human) (UniProt O35082); experiment: SPR
[2] = target: T1, ligand-binding domain of human FGFR1c (D142 to R365) (human, UniProt P11362 142-365); experiment: SPR
T1 chain: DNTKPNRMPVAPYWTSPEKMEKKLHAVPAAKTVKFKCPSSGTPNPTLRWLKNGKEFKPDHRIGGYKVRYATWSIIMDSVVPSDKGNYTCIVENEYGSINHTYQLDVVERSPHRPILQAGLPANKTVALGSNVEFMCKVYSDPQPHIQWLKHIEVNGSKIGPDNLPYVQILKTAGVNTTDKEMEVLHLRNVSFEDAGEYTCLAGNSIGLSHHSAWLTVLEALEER

[3] = target: T2, binary complex of FGFR1c ligand-binding domain with murine βKlotho ectodomain (murine; human, UniProt P11362 142-365); experiment: SPR competition; FGF21 in solution mixed with βKlotho-FGFR1c complex, passed over immobilised FGF21
T2 construct: range 142-365; also called βKlotho-FGFR1c complex; βKlotho-FGFR1c; not shown: C-terminal FLAG tag
T2 sequence 1: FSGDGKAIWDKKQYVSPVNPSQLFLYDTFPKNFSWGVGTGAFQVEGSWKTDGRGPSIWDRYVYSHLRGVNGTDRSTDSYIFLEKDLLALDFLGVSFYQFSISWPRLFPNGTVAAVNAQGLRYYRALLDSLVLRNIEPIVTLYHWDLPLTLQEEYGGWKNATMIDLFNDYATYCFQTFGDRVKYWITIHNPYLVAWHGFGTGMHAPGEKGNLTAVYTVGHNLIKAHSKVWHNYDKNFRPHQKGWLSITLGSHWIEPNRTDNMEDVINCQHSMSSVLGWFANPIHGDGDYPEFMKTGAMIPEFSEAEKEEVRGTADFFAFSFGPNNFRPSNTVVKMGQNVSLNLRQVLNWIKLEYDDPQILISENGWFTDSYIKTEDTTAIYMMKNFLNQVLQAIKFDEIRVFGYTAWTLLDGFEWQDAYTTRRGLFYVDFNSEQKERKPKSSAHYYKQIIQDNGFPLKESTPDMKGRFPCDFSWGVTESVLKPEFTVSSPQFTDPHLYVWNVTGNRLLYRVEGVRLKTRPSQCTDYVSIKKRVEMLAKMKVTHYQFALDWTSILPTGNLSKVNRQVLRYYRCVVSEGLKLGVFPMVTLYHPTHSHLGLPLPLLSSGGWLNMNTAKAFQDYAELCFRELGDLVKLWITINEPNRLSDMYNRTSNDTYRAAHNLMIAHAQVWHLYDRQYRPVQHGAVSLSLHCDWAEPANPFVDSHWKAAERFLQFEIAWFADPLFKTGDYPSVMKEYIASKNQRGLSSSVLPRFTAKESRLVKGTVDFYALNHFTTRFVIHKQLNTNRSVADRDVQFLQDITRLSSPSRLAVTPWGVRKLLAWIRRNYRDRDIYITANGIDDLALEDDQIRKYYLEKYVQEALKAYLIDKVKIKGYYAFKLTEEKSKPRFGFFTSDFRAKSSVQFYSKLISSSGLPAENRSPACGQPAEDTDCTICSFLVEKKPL
T2 sequence 2: T1 chain
Excerpt: To this end, a SPR-based binding competition assay was employed. FGF23 was immobilized onto a SPR biosensor chip, and mixtures of a fixed concentration of binary αKlotho-FGFR1c complex with increasing concentrations of FGF2^ΔHBScore-FGF23^C-tail chimera were passed over the chip. […] To test whether the FGF2^ΔHBScore-FGF21^C-tail chimera can likewise form a ternary complex with FGFR1c and βKlotho, FGF21 was coupled to a SPR biosensor chip, and mixtures of the binary βKlotho-FGFR1c complex with FGF2^ΔHBScore-FGF21^C-tail were passed over the chip. […] To further confirm the binding specificity of the FGF2^ΔHBScore-FGF23^C-tail chimera for the αKlotho-FGFR1c complex, FGF2^ΔHBScore-FGF23^C-tail and βKlotho-FGFR1c complex were mixed at a molar ratio of 10:1, and the mixture was injected over a chip containing immobilized FGF21. […] For the FGF2^ΔHBScore-FGF21^C-tail chimera, we investigated whether it is able to activate FGFR1c in a βKlotho-dependent fashion in cells. HEK293 cells were transfected with βKlotho and then stimulated with FGF2^ΔHBScore-FGF21^C-tail or FGF21.

[4] = target: T3, ligand-binding domain of human FGFR1c (D142 to R365) (human, UniProt P11362 142-365); experiment: SPR; increasing concentrations of FGFR1c ligand-binding domain passed over immobilised FGF21
T3 construct: range 142-365
T3 sequence (looked up): T1 chain
Excerpt: (§1) FIGS. 10A-10D show overlays of SPR sensorgrams illustrating binding of FGFR1c to FGF2 (FIG. 10A), FGF19 (FIG. 10B), FGF21 (FIG. 10C), and FGF23 (FIG. 10D), and fitted saturation binding curves. Increasing concentrations of FGFR1c ligand-binding domain were passed over a biosensor chip containing immobilized FGF2, FGF19, FGF21, or FGF23. […] Increasing concentrations of αKlotho-FGFR1c complex were passed over a biosensor chip containing immobilized FGF23. […] FGF23^C-tail was immobilized on a biosensor chip and increasing concentrations of FGFR1c ligand-binding domain were passed over the chip. Dissociation constants (KDs) given in FIGS. 10A-10E were derived from the saturation binding curves.
(§2) Surface plasmon resonance (SPR) experiments were performed on a Biacore 2000 instrument (Biacore AB), and the interactions were studied at 25° C. in HBS-EP buffer (10 mM HEPES-NaOH, pH 7.4, 150 mM NaCl, 3 mM EDTA, 0.005% (v/v) polysorbate 20). To study endocrine FGF-heparin interactions, a heparin chip was prepared by immobilizing biotinylated heparin (Sigma-Aldrich) on flow channels of a research-grade streptavidin chip (Biacore AB). The coupling density was ˜5 fmol mm⁻² of flow channel. To measure binding of chimeric FGF2 proteins to heparin, biotinylated heparin was coupled to a streptavidin chip at an approximately 4-fold lower density as judged based on the binding responses obtained for FGF1. […]

[5] = target: T3, ligand-binding domain of human FGFR1c …; experiment: SPR; increasing concentrations of FGFR1c ligand-binding domain passed over immobilised FGF23
Excerpt: as §1, §2

[6] = target: T4, binary complex of FGFR1c ligand-binding domain with murine αKlotho ectodomain (murine; human, UniProt O35082 35-982; P11362 142-365); experiment: SPR; FGFR1c ligand-binding domain or αKlotho-FGFR1c complex passed over immobilised FGF23 (FIGS. 10D and 10E)
T4 construct: range 35-982;range 142-365; αKlotho ectodomain was expressed in HEK293 cells; also called αKlotho-FGFR1c complex; αKlotho-FGFR1c; not shown: C-terminal FLAG tag
T4 sequence (looked up) 1: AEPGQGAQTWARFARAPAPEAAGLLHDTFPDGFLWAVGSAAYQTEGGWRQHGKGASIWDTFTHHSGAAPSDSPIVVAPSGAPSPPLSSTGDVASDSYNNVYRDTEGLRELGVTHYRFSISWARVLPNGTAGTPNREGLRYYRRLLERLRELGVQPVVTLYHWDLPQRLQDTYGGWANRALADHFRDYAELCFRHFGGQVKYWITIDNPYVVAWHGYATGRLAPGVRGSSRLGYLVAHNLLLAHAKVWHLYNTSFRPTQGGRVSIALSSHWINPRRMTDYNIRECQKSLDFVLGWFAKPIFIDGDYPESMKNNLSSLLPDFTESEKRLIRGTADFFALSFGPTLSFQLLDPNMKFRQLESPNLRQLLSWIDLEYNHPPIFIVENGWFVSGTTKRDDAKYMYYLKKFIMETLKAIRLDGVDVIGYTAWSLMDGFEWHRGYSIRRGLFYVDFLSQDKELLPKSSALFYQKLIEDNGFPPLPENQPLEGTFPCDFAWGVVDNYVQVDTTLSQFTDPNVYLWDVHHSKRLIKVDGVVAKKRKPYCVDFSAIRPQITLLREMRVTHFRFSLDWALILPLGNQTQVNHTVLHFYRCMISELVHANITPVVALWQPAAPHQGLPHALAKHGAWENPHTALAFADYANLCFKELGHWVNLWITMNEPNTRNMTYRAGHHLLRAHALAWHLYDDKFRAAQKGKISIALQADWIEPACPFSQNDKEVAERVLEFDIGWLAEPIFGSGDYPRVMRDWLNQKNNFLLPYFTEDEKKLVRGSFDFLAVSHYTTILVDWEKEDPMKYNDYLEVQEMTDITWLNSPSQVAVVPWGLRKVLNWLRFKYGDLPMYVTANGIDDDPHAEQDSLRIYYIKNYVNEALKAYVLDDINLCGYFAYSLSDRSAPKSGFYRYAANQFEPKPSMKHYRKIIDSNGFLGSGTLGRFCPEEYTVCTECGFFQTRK
T4 sequence (looked up) 2: T1 chain
Excerpt: as §1, §2

[7] = target: T3, ligand-binding domain of human FGFR1c …; experiment: SPR; FGF23^C-tail immobilised on the chip, increasing concentrations of FGFR1c ligand-binding domain passed over it
Excerpt: as §1, §2

human FGF23 (Y25 to I251), N-terminally hexahistidine-tagged mature form, with R176Q/R179Q (from UniProt Q9GZV9 25-251)
Kd [1]: 27.4 nM

B1: human FGF21 (H29 to S209), N-terminally hexahistidine-tagged mature form (ligand)
chain: HPIPDSSPLLQFGGQVRQRYLYTDDAQQTEAHLEIREDGTVGGAADQSPESLLQLKALKPGVIQILGVKTSRFLCQRPDGALYGSLHFDPEACSFRELLLEDGYNVYQSEAHGLPLHLPGNKSPHRDPAPRGPARFLPLPGLPPALPEPPGILAPQPPDVGSSDPLSMVGPSQGRSPSYAS
notes: also called native FGF21; not shown: N-terminal hexahistidine tag
Kd [2]: 2520 nM
binding result [3]: binds
binding result [4]: binds

B2: human FGF23 (Y25 to I251), N-terminally hexahistidine-tagged mature form, with R176Q/R179Q (ligand)
chain: YPNASPLLGSSWGGLIHLYTATARNSYHLQIHKNGHVDGAPHQTIYSALMIRSEDAGFVVITGVMSRRYLCMDFRGNIFGSHYFDPENCRFQHQTLENGYDVYHSPQYHFLVSLGRAKRAFLPGMNPPPYSQFLSRRNEIPLIHFNTPIPRQHTQSAEDDSERDPLNVLKPRARMTPAPASCSQELPSAEDNSPMASDPLGVVRGGRVNTHAGGTGPEGCRPFAKFI
notes: also called native FGF23; wild-type FGF23; not shown: N-terminal hexahistidine tag
Kd [2]: 648 nM
binding result [5]: binds
fold enhancement of affinity (αKlotho-FGFR1c complex against FGFR1c alone) [6]: > 20 fold

B3: N-terminally hexahistidine-tagged C-terminal tail peptide of FGF23 (S180 to I251) (peptide)
peptide: SAEDDSERDPLNVLKPRARMTPAPASCSQELPSAEDNSPMASDPLGVVRGGRVNTHAGGTGPEGCRPFAKFI
notes: also called FGF23^C-tail; not shown: N-terminal hexahistidine tag
binding result [7]: no binding
